Experiments:
[1] = molecular target: T1, GFP-TONSL wild type (full length) (Homo sapiens, UniProt Q96HA7 1-1378); assay: GFP immunoprecipitation of GFP-TONSL from transfected HeLa S3 cells, western blot (co-IP; association may be indirect)
T1 construct: Expressed in U-2-OS or HeLa S3 cells; assayed in cell extracts; also called GFP-TONSL WT; TONSL WT / GFP; not shown: N-terminal GFP tag
T1 sequence: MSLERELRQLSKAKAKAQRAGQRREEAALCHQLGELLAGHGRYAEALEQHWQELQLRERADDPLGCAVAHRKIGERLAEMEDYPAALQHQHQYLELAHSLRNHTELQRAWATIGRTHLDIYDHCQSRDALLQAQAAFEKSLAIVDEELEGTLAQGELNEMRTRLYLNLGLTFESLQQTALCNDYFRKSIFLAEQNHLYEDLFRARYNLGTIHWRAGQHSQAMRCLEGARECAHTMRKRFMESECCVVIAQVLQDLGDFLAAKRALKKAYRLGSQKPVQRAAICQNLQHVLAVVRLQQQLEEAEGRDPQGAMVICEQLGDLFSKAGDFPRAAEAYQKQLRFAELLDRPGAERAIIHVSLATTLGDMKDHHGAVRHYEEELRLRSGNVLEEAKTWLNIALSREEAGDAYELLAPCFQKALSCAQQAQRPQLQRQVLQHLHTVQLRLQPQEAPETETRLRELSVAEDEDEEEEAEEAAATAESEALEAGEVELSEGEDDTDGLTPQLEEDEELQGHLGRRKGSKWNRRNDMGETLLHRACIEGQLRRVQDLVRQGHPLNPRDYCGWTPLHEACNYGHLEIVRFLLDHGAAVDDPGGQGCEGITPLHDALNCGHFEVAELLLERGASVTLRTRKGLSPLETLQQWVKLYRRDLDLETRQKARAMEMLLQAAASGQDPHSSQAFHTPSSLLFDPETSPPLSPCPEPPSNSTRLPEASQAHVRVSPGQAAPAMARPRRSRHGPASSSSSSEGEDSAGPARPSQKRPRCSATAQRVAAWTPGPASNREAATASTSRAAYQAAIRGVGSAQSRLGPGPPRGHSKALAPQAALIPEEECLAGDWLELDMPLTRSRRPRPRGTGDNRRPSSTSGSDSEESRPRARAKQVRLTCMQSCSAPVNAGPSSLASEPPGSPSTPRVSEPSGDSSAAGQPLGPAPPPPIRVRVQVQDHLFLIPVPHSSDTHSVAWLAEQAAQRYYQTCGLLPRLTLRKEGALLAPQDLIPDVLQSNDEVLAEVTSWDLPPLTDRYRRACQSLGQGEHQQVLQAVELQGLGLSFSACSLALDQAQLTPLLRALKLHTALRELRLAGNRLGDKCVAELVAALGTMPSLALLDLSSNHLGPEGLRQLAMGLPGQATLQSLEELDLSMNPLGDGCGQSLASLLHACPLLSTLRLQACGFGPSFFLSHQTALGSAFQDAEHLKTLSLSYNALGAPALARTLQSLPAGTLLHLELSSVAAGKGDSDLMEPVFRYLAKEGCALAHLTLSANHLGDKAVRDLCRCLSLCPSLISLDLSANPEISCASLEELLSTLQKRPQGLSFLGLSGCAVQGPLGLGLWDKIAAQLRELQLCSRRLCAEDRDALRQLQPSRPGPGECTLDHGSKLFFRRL

GFP-TONSL D604A = molecular target: T2, GFP-TONSL D604A (Homo sapiens, UniProt Q96HA7 1-1378); assay: as above
T2 construct: also called TONSL D604A / GFP; not shown: N-terminal GFP tag
T2 sequence: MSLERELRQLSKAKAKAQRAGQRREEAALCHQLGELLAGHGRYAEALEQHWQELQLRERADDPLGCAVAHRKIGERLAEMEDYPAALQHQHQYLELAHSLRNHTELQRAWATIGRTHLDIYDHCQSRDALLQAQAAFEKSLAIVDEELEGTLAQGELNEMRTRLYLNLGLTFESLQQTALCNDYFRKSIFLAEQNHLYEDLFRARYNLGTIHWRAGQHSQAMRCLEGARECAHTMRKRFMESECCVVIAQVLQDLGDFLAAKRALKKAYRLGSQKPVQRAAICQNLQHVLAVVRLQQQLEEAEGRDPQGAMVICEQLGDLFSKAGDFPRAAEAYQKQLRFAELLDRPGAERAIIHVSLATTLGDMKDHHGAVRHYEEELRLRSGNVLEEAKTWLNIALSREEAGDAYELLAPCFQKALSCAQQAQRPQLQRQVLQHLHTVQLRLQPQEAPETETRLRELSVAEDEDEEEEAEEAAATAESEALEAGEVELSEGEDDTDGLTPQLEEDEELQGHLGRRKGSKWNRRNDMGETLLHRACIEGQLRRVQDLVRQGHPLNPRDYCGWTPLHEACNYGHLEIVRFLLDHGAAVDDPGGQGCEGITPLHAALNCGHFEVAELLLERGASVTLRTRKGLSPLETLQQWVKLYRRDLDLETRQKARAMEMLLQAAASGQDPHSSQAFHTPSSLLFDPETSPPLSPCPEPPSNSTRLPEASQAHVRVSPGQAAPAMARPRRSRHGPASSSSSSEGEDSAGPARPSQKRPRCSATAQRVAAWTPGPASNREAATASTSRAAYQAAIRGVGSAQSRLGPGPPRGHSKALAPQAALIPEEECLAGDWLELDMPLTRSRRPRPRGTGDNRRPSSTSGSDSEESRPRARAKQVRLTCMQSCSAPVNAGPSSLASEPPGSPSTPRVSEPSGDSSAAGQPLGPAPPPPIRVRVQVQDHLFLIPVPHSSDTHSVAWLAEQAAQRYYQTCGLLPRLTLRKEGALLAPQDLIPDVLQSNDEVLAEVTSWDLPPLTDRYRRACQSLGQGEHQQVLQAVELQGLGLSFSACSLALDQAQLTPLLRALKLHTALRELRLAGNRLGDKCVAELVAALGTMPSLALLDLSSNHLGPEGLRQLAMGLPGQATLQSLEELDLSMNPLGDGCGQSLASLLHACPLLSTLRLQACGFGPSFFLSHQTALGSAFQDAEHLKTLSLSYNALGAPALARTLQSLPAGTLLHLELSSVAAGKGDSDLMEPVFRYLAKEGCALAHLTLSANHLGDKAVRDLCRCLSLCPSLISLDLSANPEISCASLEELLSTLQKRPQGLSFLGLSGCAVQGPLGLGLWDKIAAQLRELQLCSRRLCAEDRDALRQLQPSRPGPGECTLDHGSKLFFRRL

B1: MMS22L (endogenous, in cell extracts) (other, UniProt Q6ZRQ5 1-1243, looked up)
chain: MENCSAASTFLTDSLELELGTEWCKPPYFSCAVDNRGGGKHFSGESYLCSGALKRLILNLDPLPTNFEEDTLEIFGIQWVTETALVNSSRELFHLFRQQLYNLETLLQSSCDFGKVSTLHCKADNIRQQCVLFLHYVKVFIFRYLKVQNAESHVPVHPYEALEAQLPSVLIDELHGLLLYIGHLSELPSVNIGAFVNQNQIKLFPPSWHLLHLHLDIHWLVLEILYMLGEKLKQVVYGHQFMNLASDNLTNISLFEEHCETLLCDLISLSLNRYDKVRSSESLMSDQCPCLCIKELWVLLIHLLDHRSKWFVSESFWNWLNKLLKTLLEKSSDRRRSSMPVIQSRDPLGFSWWIITHVASFYKFDRHGVPDEMRKVESNWNFVEELLKKSISVQGVILEEQLRMYLHCCLTLCDFWEPNIAIVTILWEYYSKNLNSSFSISWLPFKGLANTMKSPLSMLEMVKTCCCDKQDQELYKSSSSYTIFLCILAKVVKKAMKSNGPHPWKQVKGRIYSKFHQKRMEELTEVGLQNFFSLFLLLAAVAEVEDVASHVLDLLNFLKPAFVTSQRALIWKGHMAFLLMYAQKNLDIGVLAEKFSCAFREKAKEFLVSKNEEMVQRQTIWTLLSIYIDGVQEVFETSYCLYPSHEKLLNDGFSMLLRACRESELRTVLSFLQAVLARIRSMHQQLCQELQRDNVDLFVQSSLSAKERHLAAVASALWRHFFSFLKSQRMSQVVPFSQLADAAADFTLLAMDMPSTAPSDFQPQPVISIIQLFGWDDIICPQVVARYLSHVLQNSTLCEALSHSGYVSFQALTVRSWIRCVLQMYIKNLSGPDDLLIDKNLEEAVEKEYMKQLVKLTRLLFNLSEVKSIFSKAQVEYLSISEDPKKALVRFFEAVGVTYGNVQTLSDKSAMVTKSLEYLGEVLKYIKPYLGKKVFSAGLQLTYGMMGILVKSWAQIFATSKAQKLLFRIIDCLLLPHAVLQQEKELPAPMLSAIQKSLPLYLQGMCIVCCQSQNPNAYLNQLLGNVIEQYIGRFLPASPYVSDLGQHPVLLALRNTATIPPISSLKKCIVQVIRKSYLEYKGSSPPPRLASILAFILQLFKETNTDIYEVELLLPGILKCLVLVSEPQVKRLATENLQYMVKACQVGSEEEPSSQLTSVFRQFIQDYGMRYYYQVYSILETVATLDQQVVIHLISTLTQSLKDSEQKWGLGRNIAQREAYSKLLSHLGQMGQDEMQRLENDNT
[1]
  binding result: binds
GFP-TONSL D604A
  binding result: binds

— patent publication US20200148732A1 (UNIVERSITY OF COPENHAGEN, published 2020)
